Consider 1 molecule from article PMC12803514, “The RNA-binding protein HuR modulates the expression of the disease-linked CCL2 rs1024611G-rs13900T haplotype”.

The target in this data set is HuR (ELAVL1 human recombinant protein) (Homo sapiens, UniProt Q15717 1-326). Briefly: EMSA; HuR 0-150 µM as printed (25-200 µM in Methods); 20 mM HEPES pH 7.6, 3 mM MgCl2, 40 mM KCl, 5% glycerol, 2 mM DTT, 20 µg yeast tRNA, 20 U RNasin, 20 µL, on ice 10 min (plus 15 min with antibody); 5% native PAGE, 0.5x TBE. As to conditions: protein: commercial. (In EMSA bound probe runs differently from free probe, usually more slowly.)
HuR (ELAVL1 human recombinant protein), sequence (Q15717 whole entry): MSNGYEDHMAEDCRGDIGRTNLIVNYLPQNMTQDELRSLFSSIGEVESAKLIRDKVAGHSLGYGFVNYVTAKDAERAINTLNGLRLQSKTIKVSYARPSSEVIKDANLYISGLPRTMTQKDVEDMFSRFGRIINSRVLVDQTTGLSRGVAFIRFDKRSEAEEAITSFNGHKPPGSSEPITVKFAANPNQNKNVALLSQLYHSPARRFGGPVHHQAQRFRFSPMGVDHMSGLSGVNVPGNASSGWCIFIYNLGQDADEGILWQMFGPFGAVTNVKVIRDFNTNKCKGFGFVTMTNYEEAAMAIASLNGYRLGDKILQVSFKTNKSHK

Turning to CUUUCCCCAGACACCUUGUUUUAUUU (ssRNA) [rs13900T oligoribonucleotide], the binding result is given as “binds”.
